The text below walks through data of patent JP2007302676A (dated 2007).

For test [1], the target named is 全長ヒトインテグリンアルファ4ベータ7 (expressed in 293 cells, purified by Fib504 affinity chromatography) (human) (UniProt P13612). The test is described as follows: Biacore SPR, Fab immobilised on CM5, alpha4beta7 injected (summary of Table 3). (In general: In SPR one partner is held on a chip, and binding of the other changes the refractive index at the surface.)
The target in test [2] is T1, 全長ヒトインテグリンアルファ4ベータ7 (expressed in 293 cells, purified by Fib504 affinity chromatography) (human, UniProt P13612 34-1032; P26010 20-798).
T1 construct: mature; also called 固定化アルファ4ベータ7; α4β7
The test is described as follows: phage-displayed Fab on immobilised human alpha4beta7.

B1: hu504.32 (Fab) (Fab, V domains shown)
VH: EVQLVESGGGLVQPGGSLRLSCAASGFFITNNYWGWVRQAPGKGLEWVGYISYSGSTSYNPSLKSRFTISRDTSKNTFYLQMNSLRAEDTAVYYCAMTGSSGYFDFWGQGTLVTVSS
VL: DIQMTQSPSSLSASVGDRVTITCRASESVDDLLHWYQQKPGKAPKLLIKYASQSISGVPSRFSGSGSGTDFTLTISSLQPEDFATYYCQQGNSLPNTFGQGTKVEIKR
B1 yielded a fold tighter binding relative to the starting rat antibody in test [1] of 3 fold.

B2: Fib504Kグラフト (HVR graft with light chain Y49K, Fab displayed on phage) (Fab, V domains shown)
VH: EVQLVESGGGLVQPGGSLRLSCAASGFFITNNYWGWVRQAPGKGLEWVGYISYSGSTSYNPSLKSRFTISADTSKNTAYLQMNSLRAEDTAVYYCAMTGSSGYFDFWGQGTLVTVSS
VL: DIQMTQSPSSLSASVGDRVTITCRASESVDTYLHWYQQKPGKAPKLLIKYASQSISGVPSRFSGSGSGTDFTLTISSLQPEDFATYYCQQGNSLPNTFGQGTKVEIKR
notes: also called hu504Kグラフト; ヒト化504Kグラフト
B2: the binding result in test [2] is given as “no binding”.

B3: Fib504グラフト (direct HVR graft, Fab displayed on phage) (Fab, V domains shown)
VH: EVQLVESGGGLVQPGGSLRLSCAASGFFITNNYWGWVRQAPGKGLEWVGYISYSGSTSYNPSLKSRFTISADTSKNTAYLQMNSLRAEDTAVYYCAMTGSSGYFDFWGQGTLVTVSS
VL: DIQMTQSPSSLSASVGDRVTITCRASESVDTYLHWYQQKPGKAPKLLIYYASQSISGVPSRFSGSGSGTDFTLTISSLQPEDFATYYCQQGNSLPNTFGQGTKVEIKR
notes: Tested as monovalent Fab-g3 on phage (VH-CH1 fused to truncated P3); also called hu504グラフト; ヒト化抗体504グラフト
Regarding B3, the binding result in test [2] is reported as “no binding”.
